“And” between values parts separate entries of the source, which are not always exact repeats. Equal values may be shown once. “Also recorded” adds a separate entry of the source.

The conditions of test [1]: cited from earlier work.
Test [2] deals with T1, human CXCR4 (CXCR4 positive lipoparticles) (Homo sapiens, UniProt P61073).
T1 construct: purchased Integral Molecular LEV-101B
Nature of the test: Biacore SPR kinetic binding to immobilised CXCR4 lipoparticles. Here is the method:
(FIGS. 2A-2C, 5A-5C, 11A-11D, 17A-17B) Kinetic binding analysis of selected i-bodies with immobilized CXCR4 lipoparticles were performed at 25° C. using Biacore T200 instrument (GE Healthcare, Uppsala, Sweden). Streptavidin immobilization was performed in 1×HBS-P+ running buffer (10 mM HEPES, 150 mM NaCl, 0.05% [v/v] Tween-20). […] All binding experiments involving lipoparticles were performed with 1×HBS/BSA (10 mM HEPES, 150 mM NaCl, 1 mg/mL BSA) as instrument running buffer. […] In order to determine binding kinetics, serial dilutions (three-fold) of i-bodies diluted in 1×HBS/BSA were injected over immobilized lipoparticles with the association and dissociation phases monitored for 60 sec and 600 sec, respectively. A control measurement of the instrument running buffer (“zero-buffer” blank) solution was also included for double referencing purposes. Collected experimental data were processed using Scrubber software (www.biologic.com.au). Kinetic parameters (ka=association and kd=dissociation rate constants) and equilibrium dissociation constant (KD=kd/ka) were derived by fitting each set of experimental data to a Langmuir 1:1 binding model. All interaction measurements were performed in triplicate and the derived binding parameters reported as averaged values±standard deviation.

Test [3] addresses T2, CXCR4 (Homo sapiens, UniProt P61073). Nature of the test: Calcium flux assay (Screen Quest Fluo-8, FLIPR) in antagonist mode. It counts as cell-based. The note with it: SDF-1 at EC80. Background: Calcium flux is commonly read through the fluorescence of an indicator in the cells.
Protocol: Inhibition of Ca2+ influx by controls or i-bodies (IC50) was then determined.
Mammalian cells stably expressing human CXCR4 receptor were produced in-house by Multispan, Inc (catalog no. C1004-1). Control agonist used was SDF-1 (Peprotech, Cat #300-28A).
Cells were seeded in 384-well plate at an appropriate density and cultured overnight. Calcium assay was conducted according to the manufacturer's protocols. The calcium dye loading buffer was added to the cells and incubated for one hour at 37° C. Calcium flux was monitored for 120 seconds with compound injected into the wells at 19th second. In antagonist mode, carrier or compounds were preincubated with the cells for 30 minutes before calcium flux measurement with the control agonist at EC80 concentration obtained from dose-response curve.
Test [4] concerns white blood cells, LSK and LSKSLAM cells in peripheral blood. The experiment in a line: Stem cell mobilisation in mice after i.v. injection. The test is classed as in vivo, mouse. Particulars: 1 and 3 hours after i.v. injection, compared to AMD3100. The method, then:
After 1 and 3 hours, mice were euthanized and peripheral blood (PB) harvested. Spleens were harvested and weighed to assess for splenomegaly (enlargement of the spleen). Samples were lysed to remove red blood cells and 4000 cells plated for LPP (low-proliferative potential) and CFU-HPP (colony forming unit-high proliferative potential) colonies (colony counting 7 days post-plating). The remaining cells were stained with an antibody cocktail to assess lineage-committed, stem and progenitor cell content. Flow cytometric analysis was used to calculate numbers of lineage-committed cells, haemopoietic stem and progenitor cells as well as enriched HSC per volume of PB.

Test [5] in a line: Murine air pouch model with SDF-1. The test is classed as in vivo, BALB/c mice. Particulars: intraperitoneal, 30 minutes before SDF-1 6 μg. The method, then:
The ability of i-bodies to block inflammation was evaluated in an in vivo murine air pouch model. The subcutaneous (s.c.) air pouch is an in vivo model used to study acute and chronic inflammation (Durate et al, Models of Inflammation: Carrageenan Air Pouch, Current Protocols in Pharmacology 5.6.1-5.6.8, March 2012). Injection of irritants into an air pouch in rats or mice induces an inflammatory response that can be quantified by the volume of exudate produced, the infiltration of cells, and the release of inflammatory mediators. An air pouch, is generated by injection of sterile air under the skin of the back of the mouse. […] Air pouch lavage fluid is then analyzed for cell trafficking and cytokine release.
The air pouch assay was performed on 7-week-old BALB/c mice. On days 1 and 3, 0.2 ml/g initial body weight (IBW) of sterile air was injected under the back skin to create the pouch. […] Thirty minutes later, SDF-1 (6 μg) was injected into the pouch. Four hours later, the mice were killed in a CO2 chamber and the air pouch was washed. Cells were collected, counted, and characterized by flow cytometry.

Test [6] has as its system Human platelet rich plasma. The experiment in a line: SDF-1α induced platelet aggregation. The test is classed as cell-based. Particulars: 10 or 20 ug/mL, 100 nM SDF-1 alpha. Here is the method: Experiments were carried out to examine whether the i-bodies could block platelet aggregation induced by SDF-1α. […] In the presence of negative control i-body 21H5 (or the isotype control for 12G5: mouse IgG2a). SDF-1 induced a robust and reproducible aggregation (the descending black curves, which indicate an increase in light transmission), which matches with what has been previously published.

Test [7] has as its target T3, CCR4 (Homo sapiens, UniProt P51679).
T3 sequence (P51679 1-360): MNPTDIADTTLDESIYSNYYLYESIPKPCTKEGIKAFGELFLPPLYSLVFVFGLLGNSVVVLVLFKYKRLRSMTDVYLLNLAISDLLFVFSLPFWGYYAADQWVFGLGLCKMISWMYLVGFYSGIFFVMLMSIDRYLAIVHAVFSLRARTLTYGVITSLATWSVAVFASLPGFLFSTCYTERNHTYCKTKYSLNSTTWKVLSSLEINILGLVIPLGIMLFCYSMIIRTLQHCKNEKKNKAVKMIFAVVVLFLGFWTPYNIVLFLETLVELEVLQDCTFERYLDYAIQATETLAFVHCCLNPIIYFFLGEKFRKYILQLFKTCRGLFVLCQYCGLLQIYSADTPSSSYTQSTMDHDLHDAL
The experiment in a line: PathHunter (DiscoverX) β-arrestin assay, CCR4. The test is classed as cell-based. Here is the method: (FIG. 9) The PathHunter® β-Arrestin assay (DiscoveRx) was performed according to the manufacturer's protocol. Cells were seeded into white walled, 384-well tissue culture-treated microplates (Corning) and normalized at 5,000 cells (or 10,000 cells for CXCR4) in a total volume of […]. Cell growth was at 37° C. (5% CO2, 95% relative humidity). […] Agonists were then added at the EC80 concentration and incubation was continued at 37° C. for 90 min (or 180 min for CCR1). Assay signal was generated through a single addition of 15 μL (50% v/v) of PathHunter Detection reagent cocktail, followed by 1 h incubation at room temperature. Microplates were read following signal generation with a PerkinElmer Envision instrument for chemiluminescent signal detection of relative light units (RLU).

In test [8] the target is T2, CXCR4. Nature of the test: β-arrestin BRET assay, antagonist mode with 100 nM SDF-1. Particulars: only an order of magnitude is printed in the cell. The arrangement: expressed in transfected cells; host or cells: HEK293FT. It counts as cell-based. The source says: (FIGS. 3A-3F and 14) BRET was used in this study to assess the real-time kinetic profiles resulting from any consequent increase in proximity, building upon the previously validated monitoring of GPCR/β-arrestin interactions utilizing BRET. BRET occurs between a complementary Renilla luciferase (Rluc) variant as donor and green fluorescent protein variant as acceptor. Upon Rluc-catalyzed oxidation of the coelenterazine substrate (such as coelenterazine h for first generation BRET (BRET) or EnduRen for extended BRET (eBRET), energy is transferred to the acceptor if within 10 nm, resulting in acceptor light emission peaking at a characteristic wavelength. BRET (3-arrestin assays were carried out as described previously (See, H. B., Seeber, R. M., Kocan, M., Eidne, K. A. and Pfleger, K. D. (2011) ‘Application of G protein-coupled receptor-heteromer identification technology to monitor beta-arrestin recruitment to G protein-coupled receptor heteromers’, Assay Drug Dev Technol, 9(1), 21-30, 10.1089/adt.2010.0336). CXCR4/Rluc8 cDNA constructs were generated from plasmids containing the respective receptor cDNA tagged with Rluc kindly provided by Aron Chakera (Oxford University, United Kingdom). The β-arrestin 2/Venus cDNA construct was prepared previously from pCS2-Venus kindly provided by Atsushi Miyawaki (RIKEN Brain Science Institute, Wako-city, Japan). BRET technology in cells transiently expressing CXCR4/Rluc8 and β-arrestin2/Venus in the presence of 100 nM SDF-1 agonist was evaluated in the presence of the CXCR4 agonist SDF-1/CXCL12 and the i-bodies. HEK293FT cells were maintained at 37° C., 5% CO2 in Complete Media (Dulbecco's modified Eagle's medium containing 0.3 mg/mL glutamine, 100 IU/mL penicillin, and […] streptomycin; Gibco) supplemented with 10% fetal calf serum (FCS) and […] Geneticin (Gibco). Transfections were carried out 24 h after seeding using Genejuice (Novagen) according to manufacturer's instructions. Cells were harvested with 0.05% Trypsin-EDTA (Gibco). HEK293FT cells were transfected using FuGene6 (Promega). 5 μM coelenterazine h (Promega) in HBSS was used as the luciferase substrate solution. Cells were harvested 24 h post-transfection in HEPES-buffered phenol red-free Complete Medium containing 5% FCS and added to a poly-L-lysine-coated white 96-well plate (Nunc). Dose-response curves were generated using BRET, with medium in the plate being replaced with PBS containing […] coelenterazine h (Molecular Probes) and assays carried out immediately. For these assays, 48 h post-transfection, the plate was incubated at […], 5% CO2 for 2 h with […] EnduRen (Promega) to ensure substrate equilibrium was reached. All BRET measurements were taken at 37° C. using the VICTOR Light plate reader with Wallac 1420 software (PerkinElmer). Filtered light emissions were sequentially measured at 400-475 and 520-540 nm. The BRET signal was calculated by subtracting the ratio of 520-540 nm emission over 400-475 nm emission for a vehicle-treated cell sample from the same ratio for a second aliquot of the same cells treated with agonist (in this instance in the presence of SDF-1 or CXCL12) and i-body (ADCX-99, ADCX-272, ACDX-6, ACDX-306, ADCX-668) at various concentrations. Data are mean±S.E.M. of four independent experiments carried out in duplicate.
Binding of the i-bodies to CXCR4 were examined in a β-Arrestin BRET assay as described in See, Heng B et al (2011) Assay and Drug Development Technologies 9(1):21-30. The i-bodes were examined at ten concentrations with and without 100 nM SDF-1 with the addition of ‘vehicle’ and ‘SDF-1+vehicle’ controls in order to characterise if the i-bodies are agonist or antagonists of CXCR4 activity.

[9] abbreviates: CXCR4 expressed on lipoparticles (Table 4).
[10] abbreviates: off-rate, CXCR4 expressed on lipoparticles (Table 3).

T1 sequence (P61073 whole entry): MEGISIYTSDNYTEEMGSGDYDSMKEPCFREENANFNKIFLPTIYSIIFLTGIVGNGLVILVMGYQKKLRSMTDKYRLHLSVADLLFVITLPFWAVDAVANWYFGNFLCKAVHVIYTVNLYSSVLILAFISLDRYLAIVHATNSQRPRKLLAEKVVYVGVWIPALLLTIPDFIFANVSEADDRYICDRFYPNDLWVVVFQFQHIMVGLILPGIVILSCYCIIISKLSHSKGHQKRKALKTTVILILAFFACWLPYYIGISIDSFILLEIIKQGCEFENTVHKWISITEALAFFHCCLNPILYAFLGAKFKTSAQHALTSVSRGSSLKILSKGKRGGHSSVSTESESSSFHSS
T2 sequence (P61073 whole entry): as above

On to `c1ccc(CNCc2ccc(CN3CCCNCCNCCCNCC3)cc2)nc1` [AMD3465], for which the “effectiveness relative to AMD3100 at releasing neutrophils from the bone marrow” value in test [1] (Hatse et al 2005) is on record as 10 fold. Also, the “diet-induced atherosclerotic lesion development” value in test [1] (long-term inhibition, Apoe−/− and Ldlr−/− mice, Zernecke et al 2008) is on record as “aggravated diet-induced atherosclerotic lesion development”.

B1: AM4-746: affinity matured CXCR4 i-body, SEQ ID NO: 76 (protein)
chain: LQVDIVPSQGEISVGESKFFLCQVAGSKSNIRISWFSPNGEKLTPNQQRISVVWNDDSSSTLTIYNANIDDAGIYKCVVYRTGGYRHRYLKLGEATVNVKIFQ
modifications: protein sequence encoding AM4-746
As for B1, in test [2] (setting [9]), the Ka is 2.5e+06 M⁻¹ s⁻¹. Further, the “Calcium Inhibition EC50” value in test [3] is listed as “uM”. The “mobilisation of white blood cells” value in test [4] is reported as “No mobilisation”. Moreover, in test [5], the “cell migration / leukocyte infiltration into the air pouch” value is recorded as “inhibiting leukocyte infiltration; also recorded: inhibited cell migration”. The “blocking of SDF-1α induced platelet aggregation” value in test [6] is on record as “blocked aggregation to the same extent as the MAb12G5”.

B2: AM5-245: affinity matured CXCR4 i-body, SEQ ID NO: 68 (protein)
chain: LQVDIVPSQGEISVGESKFFLCQAAGSGSHIRISWFSPNGEKLTPNQQRISVVWNDDSSSTLTIYNANIDDAGIYKCVVWRTGGYRHRALVLGEATVNVKIFQ
modifications: protein sequence encoding AM5-245
For B2, in test [2] (setting [9]), the Ka was 813000 M⁻¹ s⁻¹ and 771000 M⁻¹ s⁻¹; the “dissociation rate constant (kd)” value is 12100 M⁻¹ s⁻¹ and 12300 M⁻¹ s⁻¹. Further, in test [2] (setting [10]), the “dissociation rate constant (kd)” value was 0.01445. Besides, the CCR4 activity in test [7] is −5%. In addition, in test [8], the “IC50 in β-Arrestin BRET assay (Antagonist mode in the presence of 100 nM SDF-1)” value is “~uM”.

B3: AM4-1121: affinity matured CXCR4 i-body, SEQ ID NO: 48 (protein)
chain: LQVDIVPSQGEISVGESKFFLCQVAGSKSGIRISWFSPNGEKLTPNQQRISVVWNDDSSSTLTIYNANIDDAGIYKCVVYRTGGYRHRYLRLGEATVNVKIFQ
modifications: protein sequence encoding AM4-1121
Regarding B3, in test [2] (setting [9]), the Ka is 1.289e+06 M⁻¹ s⁻¹ and 1.42e+06 M⁻¹ s⁻¹. For the same molecule, the “dissociation rate constant (kd)” value in test [2] (setting [9]) was 9290 M⁻¹ s⁻¹ and 9540 M⁻¹ s⁻¹; in test [2] (setting [10]), 0.1153. Further, the “Calcium Inhibition EC50” value in test [3] is “uM”. In addition, the “mobilisation of white blood cells” value in test [4] was “No mobilisation”. Moreover, the “cell migration / leukocyte infiltration into the air pouch” value in test [5] is reported as “inhibiting leukocyte infiltration; also recorded: inhibited cell migration”. In test [6], the “blocking of SDF-1α induced platelet aggregation” value is recorded as “most effective; also recorded: most efficient”.
